Laboratory results from patent US20190256588A1 (BEIJING HANMI PHARM, published 2019).

Columns and labels:
[1] = biological target: T1, recombinant human IL-17E (human, UniProt Q9H293 33-177); experiment: ELISA, cytokine coated on plate at 1 µg/mL
T1 sequence (looked up): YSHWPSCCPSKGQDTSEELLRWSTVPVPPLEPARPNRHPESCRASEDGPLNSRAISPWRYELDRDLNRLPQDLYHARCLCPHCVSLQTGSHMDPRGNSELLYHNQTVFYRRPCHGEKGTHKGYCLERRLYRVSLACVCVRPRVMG
Protocol: (§1) Recombinant human IL-17A, IL-17B, IL-17C, IL-17D, IL-17E, IL-17F, IL-1, IL-2, IL-6, IL-8, IL-21, IL-22, IL-23, IFN-g and TNFα (purchased from Sino Biological Inc. or R&D systems) were coated on a 96-well high-absorbing ELISA plate with a carbonate buffer solution with pH 9.6, the coating concentration was 1 μg/mL, the coating amount was 100 μL per well, and the coating was carried ax 4° C. out overnight. The plate was washed five times with PBST and blocked with 300 μL/well of PBST containing 1% BSA and incubated at 25° C. for 1 hour. The plate was washed five times with PBST. […] The plate was washed five times with PBST. Then, horseradish peroxidase-labeled anti-human IgG antibody (Chemicon, Catalog Number AP309P) 1:2000 diluted in PBST containing 1% BSA was added, 100 μL was added to each well, incubated at 25° C. for 1 hour. The plate was washed five times with PBST. 100 μL/well of colorimetric substrate TMB was added and incubated at room temperature for 10 minutes. Color development was terminated by adding 100 μL/well of 1 M H₂SO₄. The absorbance at 450 nm was read on a microplate reader.
(§2) Recombinant human IL-17A, IL-17B, IL-17C, IL-17D, IL-17E, IL-17F, IL-1, IL-2, IL-6, IL-8, IL-21, IL-22, IL-23, IFN-g and TNFα (purchased from Sino Biological Inc. or R&D systems) were coated on a 96-well high-absorbing ELISA plate with a carbonate buffer solution with pH 9.6, the coating concentration was 1 μg/mL, the coating amount was 100 μL per well, and the coating was carried at 4° C. out overnight. Washed five times with PBST. Blocked with 300 μL/well of PBST containing 1% BSA and incubated at 25° C. for 1 hour. Washed five times with PBST.

[2] = biological target: T2, recombinant human IL-17F (human, UniProt Q96PD4 31-163); experiment: ELISA, cytokine coated on plate at 1 µg/mL
T2 sequence (looked up): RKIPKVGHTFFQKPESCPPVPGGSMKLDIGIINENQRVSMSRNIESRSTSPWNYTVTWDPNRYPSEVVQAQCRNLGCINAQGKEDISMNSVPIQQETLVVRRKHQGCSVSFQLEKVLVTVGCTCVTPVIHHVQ
Protocol: as §1, §2

[3] = biological target: T3, recombinant human IL-17A (human, UniProt Q16552 24-155); experiment: SPR, Biacore 3000, human IL-17A coupled to CM5 chip, antibody injected
T3 construct: also called IL-17A antigen
Protocol: The instrument utilizes an optical surface plasmon resonance technique to detect association and dissociation between a molecule coupled on a sensor chip and an analyte. CM5 chips (GE Healthcare, BR-1000-12) were used. Brief experiment procedure was as follow: human IL-17A was dissolved in sodium acetate buffer (pH 5.0) and coupled to CM chip by injecting at a speed of 10 μL/min. 1 M ethanolamine was injected at a speed of 10 μL/min for blocking. […] 10 mM glycine solution (pH 2.0) was used for regeneration. Association rate constants and dissociation rate constants were analyzed and calculated by Biacore 3000 control software.

[4] = biological target: T4, recombinant rat IL-17A (rat, UniProt Q61453 18-150, limits assumed); experiment: ELISA, recombinant rat IL-17A coated on the plate, HRP anti-human IgG, OD450nm
T4 sequence (looked up): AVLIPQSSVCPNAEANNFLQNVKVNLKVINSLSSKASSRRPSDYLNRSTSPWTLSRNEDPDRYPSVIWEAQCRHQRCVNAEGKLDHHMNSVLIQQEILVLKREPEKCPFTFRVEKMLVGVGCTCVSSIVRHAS
Protocol: (§3) Recombinant human IL-17A, monkey IL-17A, rat IL-17A and mouse IL-17A (all purchased from Sino Biological Inc.), were coated on a 96-well high-absorbing ELISA plate with a carbonate buffer solution with pH 9.6, the coating concentration was […], the coating amount was 100 μL per well, and the coating was carried out at 4° C. overnight. The plate was washed five times with PBST and blocked with 300 μL/well of PBST containing 1% BSA, and then incubated at 25° C. for 1 hour. The plate was washed five times with PBST. […] The plate was washed five times with PBST. Then, horseradish peroxidase-labeled anti-human IgG antibody (Chemicon, Catalog Number AP309P) 1:2000 diluted in PBST containing 1% BSA was added, 100 μL per well, incubated at 25° C. for 1 hour. The plate was washed five times with PBST. 100 μL/well of colorimetric substrate TMB was added and incubated at room temperature for 10 minutes. Color development was terminated by adding 100 μL/well of 1 M H₂SO₄. The absorbance at 450 nm was read on a microplate reader.

[5] = biological target: T3, recombinant human IL-17A; experiment: ELISA, recombinant human IL-17A coated on the plate, HRP anti-human IgG, OD450nm
Protocol: as §3

[6] = biological target: T5, recombinant mouse IL-17A (mouse, UniProt Q62386 26-158, limits assumed); experiment: ELISA, recombinant mouse IL-17A coated on the plate, HRP anti-human IgG, OD450nm
T5 sequence (looked up): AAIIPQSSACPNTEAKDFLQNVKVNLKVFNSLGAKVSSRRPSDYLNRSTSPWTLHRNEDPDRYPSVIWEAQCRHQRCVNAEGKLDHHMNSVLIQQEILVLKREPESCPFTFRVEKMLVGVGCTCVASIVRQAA
Protocol: as §3

[7] = biological target: recombinant monkey IL-17A (monkey); experiment: ELISA, recombinant monkey IL-17A coated on the plate, HRP anti-human IgG, OD450nm
Protocol: as §3

T3 sequence (Q16552 24-155 limits assumed): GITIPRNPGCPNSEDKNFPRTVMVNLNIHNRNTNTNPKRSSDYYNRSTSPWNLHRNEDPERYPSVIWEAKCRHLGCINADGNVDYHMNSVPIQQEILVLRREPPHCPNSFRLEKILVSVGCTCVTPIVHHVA

B1: anti-human IL-17A chimeric monoclonal antibody (antibody, human IgG1, kappa, V domains shown)
VH: DVQVQESGPGLVKPSQSLSLTCTVTGNSITSYYAWNWIRQFPGNKLEWMGYITYSGTTSYNPSLKSRISITRDTSKNQFFLQLNSVTTEDTATYYCAREEYDDIYAVDYWGQGTSVTVSS
VL: IIVMTQTPLSLPVSLGDQASISCRSSQSLVHSNGNTYLHWYLQKPGQSPKLLIYKVYNRFSGVPDRFSGSGSGTDFTLKISRVEAEDLGVYFCSQSTHFPTFGGGTKLEIKR
notes: expressed in 293F cells; also called Anti-human IL-17A Chimeric Antibody; chimeric anti-human IL-17A monoclonal antibody
- binding result [1]: no binding
- binding result [2]: no binding
- Kd [3]: 0.03 nM
- koff [3]: 1.49e-06 s⁻¹
- kon [3]: 54100 M⁻¹ s⁻¹
- binding result [4]: no binding (tested: about 20 nM)
- EC50 [5]: 0.07 nM
- binding result [6]: no binding (tested: about 20 nM)
- EC50 [7]: 0.09 nM
